Consider two molecules from patent US20030166850A1 (Pfizer, published 2003).

The target in assay [1] is T1, proline rich domain of RGS9-2, amino acids 460-672 of human RGS9 (bait, plasmid pAS1-RGS9CT) (human, UniProt O75916 463-674).
T1 sequence: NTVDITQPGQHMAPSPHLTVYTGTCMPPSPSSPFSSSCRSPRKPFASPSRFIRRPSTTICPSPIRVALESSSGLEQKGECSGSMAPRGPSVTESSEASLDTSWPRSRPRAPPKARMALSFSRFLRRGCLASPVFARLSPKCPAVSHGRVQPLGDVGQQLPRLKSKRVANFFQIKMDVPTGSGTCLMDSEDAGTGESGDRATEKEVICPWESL
As to the kind of experiment: yeast two-hybrid assay. An excerpt:
(§1) To identify interactors of the proline rich domain of RGS9, amino acids 460-672 of human RGS9 (FIG. 1A), was used as “bait” to screen a pretransformed human fetal brain library (Clontech). The RGS9-2 cDNA used was cloned by PCR from a human brain cDNA library using the primers 5′ primer: […], 3′ primer: […]. The DNA encoding amino acids 460-672 of RGS9-2, was amplified by PCR using the primer sequences 5′ […] and 3′ […] and ligated into the NdeI and BamH 1 sites of pAS1 (Clontech). The pAS1-RGS9CT plasmid was used to transform the yeast strain PJ69-2A (Clontech) using lithium acetate. The library was screened using a yeast mating protocol by incubating the library (MATα) with the bait strain ([…]) overnight at 30° C. according to the manufacturer's protocols. The mating mixture was plated on SD/-His/-Leu/-Trp and incubated at 30° C. until colonies appeared. Colonies were picked and miniprep DNA prepared. The insert in the library plasmid was amplified using the LD-Insert Screening amplimer set of primers (Clontech) and the amplicon sequenced on an ABI 3700 capillary sequencer. The sequences obtained were used as queries against the GENBANK database using BLAST. The 6 most common hits were selected for further study and were replated on SD/-His/-Leu/-Trp containing 0-40 mM […]. […]

For assay [2], the target named is T1, proline rich domain of RGS9-2, amino …. As to the kind of experiment: yeast two-hybrid screen of a human fetal brain library.
From the text: as §1

B1: EVT ΔC54 (C terminal deletion mutant of evectin) (other)
chain: MALVRGGWLWRQSSILRRWKRNWFALWLDGTLGYYHDETAQDEEDRVLIHFNVRDIKIGPECHDVQPPEGRSRDGLLTVNLREGGRLHLCAETKDDALAWKTALLEANSTPVRVYSPYQDYYEVVPPNAHEATYVR
B1: the binding result in assay [1] is given as “binds”.

B2: evectin clone discovered in the yeast two-hybrid screen (amino acids 101-190) (other)
chain: KTALLEANSTPVRVYSPYQDYYEVVPPNAHEATYVRSYYGPPYAGPGVTHVIVREDPCYSAGAPLAMGMLAGAATGAALGSLMWSPCWF
notes: Prey clone from the pretransformed human fetal brain library (Clontech); also called latter half of the evectin protein
On to B2, for which the binding result in assay [2] is reported as “binds”.
